Reference: PMC4721547, “Cyclophilin40 isomerase activity is regulated by a temperature-dependent allosteric interaction with Hsp90” (Bioscience Reports, 2015)
Each block holds one binder with its values, some of them ahead of it.

Assays:
[1] = target: Cyclophilin 40 (human; pDEST14-6H-TEV-hCyp40) (human) (UniProt Q08752)
[2] = target: T1, Cyclophilin 40 (human; pDEST14-6H-TEV-hCyp40) (human, UniProt Q08752 1-370); assay: ITC; 500 uM SRMEEVD titrated into 7.7 uM Cyp40 in 15 x 2.5 ul aliquots; 50 mM Hepes pH 8, 100 mM sodium chloride, 1 mM DTT; 1:1 binding model; 30 °C (highest attainable temperature); settings: both partners purified
T1 construct: Cyclophilin 40 (Cyp40, PPID), human; construct pDEST14-6H-TEV-hCyp40; Monomeric by dynamic light scattering; also called PPID; source: E. coli BL21 star (DE3), purified (IMAC, gel filtration on Superdex 200)

[3] = target: T1, Cyclophilin 40 (human; …); assay: ITC; 500 uM SRMEEVD titrated into 7.7 uM Cyp40 in 15 x 2.5 ul aliquots; 50 mM Hepes pH 8, 100 mM sodium chloride, 1 mM DTT; 1:1 binding model; 20 °C (value told with Supplementary Figure S2); settings: both partners purified
[4] = target: T1, Cyclophilin 40 (human; …); assay: ITC; 500 uM SRMEEVD titrated into 7.7 uM Cyp40 in 15 x 2.5 ul aliquots; 50 mM Hepes pH 8, 100 mM sodium chloride, 1 mM DTT; 1:1 binding model; 10 °C; settings: both partners purified

T1 sequence (Q08752 whole entry): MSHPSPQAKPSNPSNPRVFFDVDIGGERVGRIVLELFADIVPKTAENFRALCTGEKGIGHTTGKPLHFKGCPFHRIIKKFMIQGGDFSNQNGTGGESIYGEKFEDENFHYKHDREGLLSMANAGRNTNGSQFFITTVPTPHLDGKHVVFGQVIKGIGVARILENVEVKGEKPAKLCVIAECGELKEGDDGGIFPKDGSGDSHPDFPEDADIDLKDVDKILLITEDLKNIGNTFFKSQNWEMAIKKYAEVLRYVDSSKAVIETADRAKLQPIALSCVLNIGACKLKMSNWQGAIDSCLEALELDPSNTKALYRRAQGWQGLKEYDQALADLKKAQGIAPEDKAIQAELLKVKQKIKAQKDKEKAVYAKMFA
Sequence of Cyclophilin 40 (human; pDEST14-6H-TEV-hCyp40) (human) (Q08752 whole entry): as above

reduction of the PPIase activity of Cyp40 (10 nM) by 250 uM peptide, substrate Suc-A-A-P-F-p-NA, 10 °C [1]: > 30%
B1: GAAAEEVD peptide (Hsp70 mutant C-terminal peptide) (peptide)
peptide: GAAAEEVD

Kd [2]: ~25 µM
Kd [3]: 10.7 µM
Kd [4]: ~5 µM
B2: SRMEEVD peptide (Hsp90 wild-type C-terminal peptide) (peptide)
peptide: SRMEEVD
notes: also called Hsp90 peptide; Hsp90 wt

reduction of the PPIase activity of Cyp40 (10 nM) by 250 uM peptide, substrate Suc-A-A-P-F-p-NA, 10 °C [1]: > 30%
B3: GPTIEEVD peptide (Hsp70 wild-type C-terminal peptide) (peptide)
peptide: GPTIEEVD
